Measurements published in patent US11813311B2, “Treatment and prevention of metabolic diseases” (Singapore Health Services PTE LTD., priority 2019, dated 2023).

What was measured:
HFMCD-fed mice [1] = test: Early-stage HFMCD NASH, antibody from week 1; type: in vivo, mouse; conditions: for development of fibrosis / lipid droplets in livers: HFMCD, 10 mg/kg biweekly from week 1; for hepatic lipid metabolism (lipogenesis and β-oxidation gene expression): RNA-seq, compared to IgG
Experimental: FIGS. 22A to 22K. Neutralisation of Il-11 signalling reverses liver damage in early stage NASH. (A) Relative liver mRNA expression of fibrosis and inflammation markers from mice fed with NC or HFMCD diets for the indicated time points. (B) Schematic of the anti-IL-11 therapy experiment early on in the HFMCD diet NASH model. Antibody treatments were started 1 week after the start of NASH diet when X209, X203, or IgG (10 mg/kg, biweekly) were administered intraperitoneally for 5 weeks. (C) Representative gross liver images and (D) Masson's Trichrome stained images of livers (scale bars, 100 μm) after 5 weeks of IgG or X209 treatments. (E) Hepatic triglyceride levels (n≥5/group), (F) liver hydroxyproline content of X209- and IgG-treated mice (n≥5/group), (G) serum ALT levels (n≥5/group). (H) Immunofluorescence images of IL6R and IL11RA expression in hepatocytes (scale bars, 100 μm). Dose-dependent effect of (I) IL-11 on ALT in hepatocyte supernatant and (J) stress fibers formation (rhodamine-phalloidin staining) in hepatocyte (scale bars, 200 μm). (K) IL-11 protein is secreted from primary human hepatocytes stimulated with TGFβ1 (5 ng/ml); 24 h. (E) Data are shown as box-and-whisker with median (middle line), 25th-75th percentiles (box) and min-max percentiles (whiskers); (F-G,I,K) data are shown as mean±s.d. (E) Tukey-corrected Student's t-test; (F,G) two-way ANOVA; (I,K) two-tailed Dunnett's test. FC: fold change; NC: normal chow; HFMCD: high fat methionine- and choline-deficient.
(§1) High fat methionine and choline-deficient (HFMCD) diet fed wild-type mice Five week old male C57BL/6N mice were fed with Methionine and Choline deficient diet supplemented with 60 kcal % fat (A060713011316, Research Diets); control mice were fed with normal chow (NC, Specialty Feeds). Durations of diet and antibody therapies are described.
Immune cells were isolated from liver as described previously 20. Liver tissues were minced and digested with 100 μg/ml Collagenase IV and 20 U/ml DNase I, at 37° C. for 1 h. Following digestion, cells were passed through strainer to obtain single cell suspension and subjected to percoll gradient centrifugation for isolation of immune cells. CyTOF staining was performed as previously described 21. Cells were thawed and stained with cisplatin (Fluidigm) to identify live cells, followed by staining with metal-conjugated CD45 antibody, for barcoding purpose. After barcoding, cells were stained with metal-conjugated cell surface antibody (Ly6C). Cells were then fixed with 1.6% PFA, permeabilized with 100% methanol, and subjected to intracellular antibody staining (TGFβ1). Cells were labeled with DNA intercalator before acquisition on Helios mass cytometer (Fluidigm). For analysis, first live single cells were identified, followed by debarcoding to identify individual samples. Manual gating was performed using Flowjo software (Flowjo).

HFMCD-fed mice [2] = test: HFMCD NASH model, antibody from week 6 to 10; type: in vivo, mouse; conditions: 10 mg/kg biweekly, four weeks of therapy from week 6
Experimental: FIGS. 20A to 20N. Therapeutic targeting of Il-11 inhibits and reverses NASH pathologies in preclinical models. (A) Schematic showing therapeutic use of X203 and X209 (10 mg/kg, biweekly) in HFMCD-fed mice for experiments shown in (B-E). X203, X209 or IgG isotype control were administered from week 6 to 10 of HFMCD diet. (B) Representative liver histological images (Masson's Trichrome staining; scale bars, 100 μm), (C) relative liver hydroxyproline content, (D) relative liver pro-inflammatory mRNA expression levels (n≥6/group) and (E) serum ALT levels. (F) Western blots of hepatic Erk activation status. (G) Schematic of X203 or IgG administration to MCD-fed db/db mice for experiments shown in H-N. Western blots of hepatic (H) Il-11 and Gapdh, (I) p-Erk and Erk. (J) Representative Masson's Trichrome images of liver from X203 or IgG-treated MCD-fed db/db mice (scale bars, 100 μm). The levels of (K) hepatic triglyceride, (L) relative liver hydroxyproline, (M) serum ALT, and (N) mRNA expression of liver pro-inflammatory markers (n≥5/group). (C-E,K-N) Data are shown as box-and-whisker with median (middle line), 25th-75th percentiles (box) and min-max percentiles (whiskers); two-tailed, Tukey-corrected Student's t-test. FC: fold change; NC: normal chow; HFMCD: high fat methionine- and choline-deficient; MCD: methionine- and choline-deficient.
as §1
Mice were injected intraperitoneally with either antagonist anti-IL-11 antibody, antagonist anti-IL11RA antibody or an identical amount of IgG isotype control for the treatment durations outlined in the figures.

Molecule | development of fibrosis (HFMCD-fed mice [1]) | lipid droplets in livers (HFMCD-fed mice [1]) | hepatic lipid metabolism (lipogenesis and β-oxidation gene expression) (HFMCD-fed mice [1]) | Erk activation (liver) (HFMCD-fed mice [2]) | liver damage (HFMCD-fed mice [2]) | liver fibrosis (HFMCD-fed mice [2]) | liver inflammation (HFMCD-fed mice [2]) | steatosis (HFMCD-fed mice [2]) | circulating TGFβ1 levels (HFMCD-fed mice [1]; HFMCD diet) | Ly6C+veTGFβ1+ve cells (HFMCD-fed mice [1]; during steatohepatitis, CyTOF) | immune cells in liver (HFMCD-fed mice [1]; during steatohepatitis, CyTOF)
X203: mouse anti-mouse IL-11 IgG (IgG1κ), neutralising; VH SEQ ID NO:22, VL SEQ ID NO:23 (antibody, V domains shown, Enx203 VH; Enx203 VL) VH: EVQLQQSGPELVKPGASVKIPCKASGYTFTDYNMDWVKQSHGKSLEWIGDINPHNGGPIYNQKFTGKATLTVDKSSSTAYMELRSLTSEDTAVYYCARGELGHWYFDVWGTGTTVTVSS VL: DIVLTQSPASLAVSLGQRATISCRASKSVSTSGYSYIHWYQQKPGQPPKLLIYLASNLDSGVPARFSGSGSGTDFTLNIHPVEEEDAATYYCQHSRDLPPTFGGGTKLEIK | nor did these mice develop fibrosis | not seen | improved hepatic lipid metabolism | abolished | inhibited or reversed | inhibited or reversed | inhibited or reversed | unchanged | – | – | –
X209: mouse anti-mouse IL-11Rα IgG (IgG1κ), neutralising; VH SEQ ID NO:24, VL SEQ ID NO:25 (antibody, V domains shown, Enx209 VH; Enx209 VL) VH: QVQLQQPGAELVRPGSSVKLSCKASGYTFTNYWMHWLKQRPVQGLEWIGNIGPSDSKTHYNQKFKDKATLTVDKSSSTAYMQLNSLTSEDSAVYYCARGDYVLFTYWGQGTLVTVSA VL: DIVLTQSPATLSLSPGERATLSCRASQSISNNLHWYQQKSHEAPRLLIKYASQSISGIPARFSGSGSGTDFTLSFSSLETEDFAVYFCQQSYSWPLTFGQGTKLEIK | nor did these mice develop fibrosis | not seen | more so than X203, improved hepatic lipid metabolism | abolished | inhibited or reversed | inhibited or reversed | inhibited or reversed | unchanged | reduced | specific reduction | fewer immune cells
